Assay results: the Immune Epitope Database (IEDB)

Experiments:
HLA-B*15:03 = test: IEDB peptide-MHC binding, purified MHC/competitive/radioactivity; filed as Kd, often an IC50 or EC50 that approximates it; ≥ and ≤ were set here for values at or beyond the usual limits of such assays
HLA-A*30:01 = test: as above
HLA-B*08:01 [1] = test: as above
HLA-B*15:01 [2] = test: as above
HLA-A*32:01 = test: as above
HLA-A*02:17 = test: as above
HLA-A*02:01 [3] = test: as above
HLA-A*02:06 = test: as above
HLA-A*24:02 = test: as above; conditions: source organism: Dengue virus 4 Philippines/H241/1956
HLA-A*23:01 = test: as above; conditions: source organism: Dengue virus 4 Philippines/H241/1956
HLA-A*02:03 = test: as above
HLA-B*18:01 = test: IEDB peptide-MHC binding, purified MHC/competitive/fluorescence; filed as Kd, often an IC50 or EC50 that approximates it; ≥ and ≤ were set here for values at or beyond the usual limits of such assays; conditions: source organism: Human herpesvirus 5 strain Towne
HLA-B*39:01 = test: as above; conditions: source organism: Human herpesvirus 5 strain Towne
HLA-B*51:01 = test: as above; conditions: source organism: Human herpesvirus 5 strain Towne
HLA-B*15:01 [4] = test: as above; conditions: source organism: Human herpesvirus 5 strain Towne
HLA-B*57:01 = test: as above; conditions: source organism: Human herpesvirus 5 strain Towne
HLA-B*07:02 [5] = test: IEDB peptide-MHC binding, purified MHC/competitive/radioactivity; filed as Kd, often an IC50 or EC50 that approximates it; ≥ and ≤ were set here for values at or beyond the usual limits of such assays; conditions: source organism: Dengue virus 4 Philippines/H241/1956
HLA-B*44:02 = test: IEDB peptide-MHC binding, purified MHC/direct/fluorescence; filed as Kd, often an IC50 or EC50 that approximates it; ≥ and ≤ were set here for values at or beyond the usual limits of such assays
HLA-B*40:01 = test: as above; conditions: source organism: Giardia lamblia ATCC 50803
HLA-A*03:01 = test: as above; conditions: source organism: Giardia lamblia ATCC 50803
HLA-A*24:03 = test: as above; conditions: source organism: Giardia lamblia ATCC 50803
HLA-B*27:05 = test: as above; conditions: source organism: Giardia lamblia ATCC 50803
HLA-B*08:01 [6] = test: as above; conditions: source organism: Giardia lamblia ATCC 50803
HLA-A*31:01 = test: as above; conditions: source organism: Giardia lamblia ATCC 50803
HLA-A*11:01 = test: as above; conditions: source organism: Giardia lamblia ATCC 50803
HLA-B*58:01 = test: as above; conditions: source organism: Giardia lamblia ATCC 50803
HLA-B*07:02 [7] = test: as above; conditions: source organism: Giardia lamblia ATCC 50803
HLA-B*15:01 [8] = test: as above; conditions: source organism: Giardia lamblia ATCC 50803
HLA-A*26:01 = test: as above; conditions: source organism: Giardia lamblia ATCC 50803
HLA-A*69:01 = test: as above; conditions: source organism: Giardia lamblia ATCC 50803
HLA-A*02:01 [9] = test: as above; conditions: source organism: Giardia lamblia ATCC 50803
HLA-A*01:01 = test: as above; conditions: source organism: Giardia lamblia ATCC 50803
[10] = source organism: Vaccinia virus WR
[11] = source organism: Vaccinia virus Copenhagen
[12] = source organism: Dengue virus 4 Philippines/H241/1956
[13] = source organism: Dengue virus 2 Jamaica/1409/1983
[14] = source organism: Dengue virus 3 Sri Lanka/1266/2000
[15] = source organism: Dengue virus 3 China/80-2/1980
[16] = source organism: Dengue virus 3 Martinique/1243/1999

KSSPETQQM
Kd (HLA-B*15:03; [10]): 108 nM
Kd (HLA-A*30:01; [10]): 1130 nM
Kd (HLA-B*08:01 [1]; [10]): 2350 nM
Kd (HLA-B*15:01 [2]; [10]): 30.4 nM
Kd (HLA-A*32:01; [10]): 464 nM

LESQHIISF
Kd (HLA-B*15:03; [11]): 28.4 nM
Kd (HLA-B*15:01 [2]; [11]): 57.1 nM

LLAGFMAYMI
Kd (HLA-A*02:17; [12]): 45.7 nM
Kd (HLA-A*02:01 [3]; [12]): 7.04 nM

LLLLVAHYA
Kd (HLA-A*02:17; [13]): 7930 nM
Kd (HLA-A*02:01 [3]; [13]): 51.9 nM

LLLLVAHYAI
Kd (HLA-A*02:17; [13]): 434 nM
Kd (HLA-A*02:06; [13]): 53.4 nM
Kd (HLA-A*02:01 [3]; [13]): 97.8 nM

LLMRTTWAF
Kd (HLA-B*08:01 [1]; [12]): 54.7 nM
Kd (HLA-A*24:02): 24.4 nM
Kd (HLA-A*23:01): 75.4 nM
Kd (HLA-B*15:01 [2]; [12]): 1.08 nM
Kd (HLA-A*32:01; [12]): 1.69 nM

LMMILPAAL
Kd (HLA-B*08:01 [1]; [14]): 18.1 nM
Kd (HLA-A*02:17; [14]): 78.4 nM
Kd (HLA-B*15:01 [2]; [14]): 13.6 nM
Kd (HLA-A*02:03; [14]): 15.3 nM

LMMMLPATLA
Kd (HLA-A*02:17; [15]): 2880 nM
Kd (HLA-A*02:03; [15]): 17.5 nM
Kd (HLA-A*02:01 [3]; [15]): 13.5 nM

LPLKMLNIPSINVH
Kd (HLA-B*18:01): ≥ 20000 nM
Kd (HLA-B*39:01): ≥ 20000 nM
Kd (HLA-B*51:01): ≥ 20000 nM
Kd (HLA-B*15:01 [4]): ≥ 20000 nM
Kd (HLA-B*57:01): ≥ 20000 nM

LQRKHGGSL
Kd (HLA-B*08:01 [1]; [12]): 57.4 nM
Kd (HLA-B*07:02 [5]): 58.2 nM
Kd (HLA-B*15:01 [2]; [12]): 26.2 nM

LTFKACDHI
Kd (HLA-B*15:03; [10]): 845 nM
Kd (HLA-A*30:01; [10]): 81.5 nM
Kd (HLA-B*08:01 [1]; [10]): 838 nM
Kd (HLA-B*15:01 [2]; [10]): 973 nM
Kd (HLA-A*32:01; [10]): 18800 nM

QLIPCMDVV
Kd (HLA-A*02:01 [3]; source organism: Triticum aestivum): 147 nM

RRLLKFRVE
Kd (HLA-B*15:03; [11]): 14900 nM
Kd (HLA-A*30:01; [11]): 1040 nM
Kd (HLA-B*08:01 [1]; [11]): 128 nM
Kd (HLA-B*15:01 [2]; [11]): ≥ 55000 nM
Kd (HLA-A*32:01; [11]): ≥ 34900 nM

TLLLLGLMIL
Kd (HLA-B*08:01 [1]; [16]): 890 nM
Kd (HLA-A*02:17; [15]): 2420 nM

VEGEGLHKL
Kd (HLA-B*44:02; source organism: Dengue virus 1 Singapore/S275/1990): ≥ 20000 nM

VIIMAINVF
Kd (HLA-B*15:03; [10]): 2030 nM
Kd (HLA-B*15:01 [2]; [10]): 26.4 nM

VLLKTALLIV
Kd (HLA-A*02:17; [15]): 2490 nM
Kd (HLA-A*02:06; [16]): 37 nM
Kd (HLA-A*02:03; [16]): 40.1 nM

WMTTEDMLTV
Kd (HLA-A*02:17; [15]): 2240 nM
Kd (HLA-A*02:06; [16]): 8.59 nM
Kd (HLA-A*02:03; [16]): 37.5 nM
Kd (HLA-A*02:01 [3]; [15]): 13.6 nM

WSFLEDRVY
Kd (HLA-B*40:01): ≥ 20000 nM
Kd (HLA-A*03:01): ≥ 20000 nM
Kd (HLA-A*24:03): ≥ 20000 nM
Kd (HLA-B*27:05): ≥ 20000 nM
Kd (HLA-B*08:01 [6]): ≥ 20000 nM
Kd (HLA-A*31:01): ≥ 20000 nM
Kd (HLA-B*44:02; source organism: Giardia lamblia ATCC 50803): ≥ 20000 nM
Kd (HLA-A*11:01): ≥ 20000 nM
Kd (HLA-B*58:01): 484 nM
Kd (HLA-B*07:02 [7]): ≥ 20000 nM
Kd (HLA-B*15:01 [8]): 42 nM
Kd (HLA-A*26:01): ≥ 20000 nM
Kd (HLA-A*69:01): ≥ 20000 nM
Kd (HLA-A*02:01 [9]): ≥ 20000 nM
Kd (HLA-A*01:01): 2270 nM
